In patent US7087392B2, “Antiproliferative SgK reagents and methods” (The Regents of the University of California, priority 1999, dated 2006):

How the values were obtained:
Sgk promoter = experiment: Hyperosmotic stress stimulation of Sgk promoter and Sgk protein production; type: cell-based, mouse; conditions: sorbitol hyperosmotic stress
Text: Regulation of Sgk transcription, protein utilization and enzymatic activity defines a new cellular component of the hyperosmotic stress pathway. Using mouse NMuMg nontumorigenic mammary epithelial cells, we have established that Sgk is a new component of the hyperosmotic stress response. (The key observations can be repeated in HeLa cells, MCF-7 human breast cancer cells, kidney derived cell and rat fibroblasts). […] This hyperosmotic stress regulated element can confer the hyperosmotic stress response to a heterologous promoter. […] Using a generally similar series of experiments, we have also shown that exposure of mammary epithelial cells to 40 J/m^2 UV radiation causes a rapid but transient stimulation in Sgk protein levels that peaks approximately 2 hours after this genotoxic stress.
The hyperosmotic stress cascade targets the sgk promoter by activating the p38/MAPK stress kinase. […] Co-transfection of the stress responsive Sgk-CAT reporter plasmid with a dominant negative form of MKK3, one of two upstream kinase regulators of the p38/MAPK, inhibits the sorbitol induction of the Sgk promoter.

Sgk = experiment: In vitro peptide kinase assay (Sgktide, [32P]ATP) of immunoprecipitated HA-Sgk; type: biochemical; conditions: for effect of cell treatment on Sgk enzymatic activity: activators or inhibitor of PI 3-kinase pathway; for kinase activity / activation of Sgk mutant: mutant forms of Sgk
Text: Sgk is a component of the PI3 kinase cascade and is directly activated by PDK1 mediated phosphorylation of threonine 256 in the activation loop. […] To develop this kinase assay, lysates from human embryo kidney 293 cells transfected to express wild type hemagglutinin (HA)-tagged Sgk (HA-Sgk) were isolated and the Sgk immunoprecipitated with HA antibodies was used to screen a synthetic peptide library for identifying potential Sgk substrates. The immunoprecipitates were extensively washed, and incubated with the peptide in the presence of [^32P]ATP in kinase buffer (Park et al 1999). Sgk phosphorylated several peptides, and the best substrate for Sgk was KKRNRRLSVA (SEQ ID NO:01), which is named Sgktide. […] This substrate specificity is generally similar to, but not identical, with the substrate specificity for Akt, which is a well characterized down stream component of the PI 3 kinase pathway.
Cotransfection of PDK1 with Sgk caused a 6-fold activation of Sgk activity, whereas, the kinase-dead form of PDK1 had no effect. […] The Ser-78 in the amino terminal domain is a third phosphorylation site and expression of the S78G Sgk mutation ablates the presence of the slowest migrating form of phosphorylated Sgk in SDS polyacrylamide gels.

mammary tumor cells = experiment: Transient cell foci growth assay of transfected mammary tumor cells; type: cell-based; conditions: transfected expression vector
Text: Functional evidence for a direct role of sgk in the glucocorticoid anti-proliferative pathway. In both the Con8 mammary epithelial tumor cells (from which Sgk was originally cloned) as well as human MCF-7 breast cancer cells (which were originally derived from a pleural effusion of a metastatic human breast adenocarcinoma) glucocorticoids induce a G1 block in cell cycle progression and strongly stimulate sgk transcript and protein production. […] To initially test whether Sgk has an anti-proliferative function and perhaps mediates the glucocorticoid growth inhibitory response, the full length rat or human wild type sgk cDNA was inserted downstream of the cytomegalovirus (CMV) promoter in an expression vector that also encodes the neomycin resistance gene. […] Transfection competent cells were selected in 0.5 mg/ml of the G418 neomycin derivative for two weeks.
Expression vectors encoding several point mutants or truncations of Sgk were transfected into the mammary tumor cells and cell growth monitored by the cell foci assay.
Transient transfection and rapid screen of the sgk expression vectors for the anti-proliferative response in rodent and human mammary tumor cells. A transient cell foci growth assay is employed to rapidly screen the various Sgk constructs to define the domains that mediate the anti-proliferative response in rat and human mammary tumor cells using our optimized conditions. The advantage of this assay is that many different mutant Sgk expression vectors can be simultaneously compared for their growth inhibitory effects. Also, this assay can be used to rapidly assess the proliferative effects of combinations of Sgk and its interacting proteins or substrates. Populations of human MCF-7 breast cancer cells or rat Con8 mammary tumor cells are transfected by the lipofectin transfection procedures and cultured in normally cytotoxic concentrations (750 μg/ml) of the G418 neomycin derivative to recover transfection competent cells. Approximately 5000 transfected cells are cultured as colonies on plastic, and after one to two weeks are fixed and stained in crystal violet/formalin to visualize the cell colonies. The effects on cell proliferation are quantitated by simply counting the resulting cell colonies or by scanning the total cell density on each plate. To provide a control for the fidelity of the cell foci assays, in each experiment, cells transfected with the control vectors (no Sgk sequences) are treated with or without 1 μM dexamethasone because the cells are growth suppressed by this synthetic glucocorticoid. […]

Molecule: Oc1ccc(-c2nc(-c3ccncc3)c(-c3ccc(F)cc3)[nH]2)cc1 [SB202190]
- hyperosmotic stress-stimulation of the Sgk promoter and Sgk protein production (Sgk promoter): dampens the hyperosmotic stress-stimulation of the Sgk promoter and Sgk protein production

Molecule: C[S+]([O-])c1ccc(-c2nc(-c3ccncc3)c(-c3ccc(F)cc3)[nH]2)cc1 (stereo not drawn) [SB203580]
- hyperosmotic stress-stimulation of the Sgk promoter and Sgk protein production (Sgk promoter): dampens the hyperosmotic stress-stimulation of the Sgk promoter and Sgk protein production

Molecule: IGF-1: hormonal activator of the PI 3-kinase pathway [reference compound]
- effect of cell treatment on Sgk enzymatic activity (Sgk): stimulated Sgk enzymatic activity

Molecule: insulin: hormonal activator of the PI 3-kinase pathway [reference compound]
- effect of cell treatment on Sgk enzymatic activity (Sgk): stimulated Sgk enzymatic activity

Molecule: pervanadate [reference compound]
- effect of cell treatment on Sgk enzymatic activity (Sgk): stimulated Sgk enzymatic activity

B1: T256D/S422D: Sgk double mutation T256D and S422D (protein, UniProt O00141 1-431, looked up, variant T256D S422D)
Serine/threonine-protein …: MTVKTEAAKGTLTYSRMRGMVAILIAFMKQRRMGLNDFIQKIANNSYACKHPEVQSILKISQPQEPELMNANPSPPPSPSQQINLGPSSNPHAKPSDFHFLKVIGKGSFGKVLLARHKAEEVFYAVKVLQKKAILKKKEEKHIMSERNVLLKNVKHPFLVGLHFSFQTADKLYFVLDYINGGELFYHLQRERCFLEPRARFYAAEIASALGYLHSLNIVYRDLKPENILLDSQGHIVLTDFGLCKENIEHNSTTSDFCGTPEYLAPEVLHKQPYDRTVDWWCLGAVLYEMLYGLPPFYSRNTAEMYDNILNKPLQLKPNITNSARHLLEGLLQKDRTKRLGAKDDFMEIKSHVFFSLINWDDLINKKITPPFNPNVSGPNDLRHFDPEFTEEPVPNSIGKSPDSVLVTASVKEAAEAFLGFDYAPPTDSFL
- kinase activity / activation of Sgk mutant (Sgk): not constitutively active

B2: T256A: Sgk with threonine 256 in the activation loop changed to alanine (protein, UniProt O00141 1-431, looked up, variant T256A)
Serine/threonine-protein …: MTVKTEAAKGTLTYSRMRGMVAILIAFMKQRRMGLNDFIQKIANNSYACKHPEVQSILKISQPQEPELMNANPSPPPSPSQQINLGPSSNPHAKPSDFHFLKVIGKGSFGKVLLARHKAEEVFYAVKVLQKKAILKKKEEKHIMSERNVLLKNVKHPFLVGLHFSFQTADKLYFVLDYINGGELFYHLQRERCFLEPRARFYAAEIASALGYLHSLNIVYRDLKPENILLDSQGHIVLTDFGLCKENIEHNSTTSAFCGTPEYLAPEVLHKQPYDRTVDWWCLGAVLYEMLYGLPPFYSRNTAEMYDNILNKPLQLKPNITNSARHLLEGLLQKDRTKRLGAKDDFMEIKSHVFFSLINWDDLINKKITPPFNPNVSGPNDLRHFDPEFTEEPVPNSIGKSPDSVLVTASVKEAAEAFLGFSYAPPTDSFL
- reduction in number of cell foci compared to the vector control (mammary tumor cells; G418 selection): 20 fold

B3: S422D: Sgk with serine 422 changed to aspartate (protein, UniProt O00141 1-431, looked up, variant S422D)
Serine/threonine-protein …: MTVKTEAAKGTLTYSRMRGMVAILIAFMKQRRMGLNDFIQKIANNSYACKHPEVQSILKISQPQEPELMNANPSPPPSPSQQINLGPSSNPHAKPSDFHFLKVIGKGSFGKVLLARHKAEEVFYAVKVLQKKAILKKKEEKHIMSERNVLLKNVKHPFLVGLHFSFQTADKLYFVLDYINGGELFYHLQRERCFLEPRARFYAAEIASALGYLHSLNIVYRDLKPENILLDSQGHIVLTDFGLCKENIEHNSTTSTFCGTPEYLAPEVLHKQPYDRTVDWWCLGAVLYEMLYGLPPFYSRNTAEMYDNILNKPLQLKPNITNSARHLLEGLLQKDRTKRLGAKDDFMEIKSHVFFSLINWDDLINKKITPPFNPNVSGPNDLRHFDPEFTEEPVPNSIGKSPDSVLVTASVKEAAEAFLGFDYAPPTDSFL
- kinase activity / activation of Sgk mutant (Sgk): partially active

B4: T256D: Sgk with threonine 256 changed to aspartate (protein, UniProt O00141 1-431, looked up, variant T256D)
Serine/threonine-protein …: MTVKTEAAKGTLTYSRMRGMVAILIAFMKQRRMGLNDFIQKIANNSYACKHPEVQSILKISQPQEPELMNANPSPPPSPSQQINLGPSSNPHAKPSDFHFLKVIGKGSFGKVLLARHKAEEVFYAVKVLQKKAILKKKEEKHIMSERNVLLKNVKHPFLVGLHFSFQTADKLYFVLDYINGGELFYHLQRERCFLEPRARFYAAEIASALGYLHSLNIVYRDLKPENILLDSQGHIVLTDFGLCKENIEHNSTTSDFCGTPEYLAPEVLHKQPYDRTVDWWCLGAVLYEMLYGLPPFYSRNTAEMYDNILNKPLQLKPNITNSARHLLEGLLQKDRTKRLGAKDDFMEIKSHVFFSLINWDDLINKKITPPFNPNVSGPNDLRHFDPEFTEEPVPNSIGKSPDSVLVTASVKEAAEAFLGFSYAPPTDSFL
- kinase activity / activation of Sgk mutant (Sgk): partially active

B5: S422A: Sgk with serine 422 changed to alanine (protein, UniProt O00141 1-431, looked up, variant S422A)
Serine/threonine-protein …: MTVKTEAAKGTLTYSRMRGMVAILIAFMKQRRMGLNDFIQKIANNSYACKHPEVQSILKISQPQEPELMNANPSPPPSPSQQINLGPSSNPHAKPSDFHFLKVIGKGSFGKVLLARHKAEEVFYAVKVLQKKAILKKKEEKHIMSERNVLLKNVKHPFLVGLHFSFQTADKLYFVLDYINGGELFYHLQRERCFLEPRARFYAAEIASALGYLHSLNIVYRDLKPENILLDSQGHIVLTDFGLCKENIEHNSTTSTFCGTPEYLAPEVLHKQPYDRTVDWWCLGAVLYEMLYGLPPFYSRNTAEMYDNILNKPLQLKPNITNSARHLLEGLLQKDRTKRLGAKDDFMEIKSHVFFSLINWDDLINKKITPPFNPNVSGPNDLRHFDPEFTEEPVPNSIGKSPDSVLVTASVKEAAEAFLGFAYAPPTDSFL
- kinase activity / activation of Sgk mutant (Sgk): inhibited Sgk activation

B6: N60–431: N-terminal truncated Sgk (protein, UniProt O00141 60-431, looked up, fragment)
chain: ISQPQEPELMNANPSPPPSPSQQINLGPSSNPHAKPSDFHFLKVIGKGSFGKVLLARHKAEEVFYAVKVLQKKAILKKKEEKHIMSERNVLLKNVKHPFLVGLHFSFQTADKLYFVLDYINGGELFYHLQRERCFLEPRARFYAAEIASALGYLHSLNIVYRDLKPENILLDSQGHIVLTDFGLCKENIEHNSTTSTFCGTPEYLAPEVLHKQPYDRTVDWWCLGAVLYEMLYGLPPFYSRNTAEMYDNILNKPLQLKPNITNSARHLLEGLLQKDRTKRLGAKDDFMEIKSHVFFSLINWDDLINKKITPPFNPNVSGPNDLRHFDPEFTEEPVPNSIGKSPDSVLVTASVKEAAEAFLGFSYAPPTDSFL
- effect on cell growth (cell foci assay) (mammary tumor cells): more effectively suppresses tumor cell growth compared to the full length Sgk protein

B7: C1–355: C-terminal Sgk truncation missing the last 75 amino acids (protein, UniProt O00141 1-355, looked up, fragment)
chain: MTVKTEAAKGTLTYSRMRGMVAILIAFMKQRRMGLNDFIQKIANNSYACKHPEVQSILKISQPQEPELMNANPSPPPSPSQQINLGPSSNPHAKPSDFHFLKVIGKGSFGKVLLARHKAEEVFYAVKVLQKKAILKKKEEKHIMSERNVLLKNVKHPFLVGLHFSFQTADKLYFVLDYINGGELFYHLQRERCFLEPRARFYAAEIASALGYLHSLNIVYRDLKPENILLDSQGHIVLTDFGLCKENIEHNSTTSTFCGTPEYLAPEVLHKQPYDRTVDWWCLGAVLYEMLYGLPPFYSRNTAEMYDNILNKPLQLKPNITNSARHLLEGLLQKDRTKRLGAKDDFMEIKSHVFF
- effect on cell growth (cell foci assay) (mammary tumor cells): little or no effect on cell growth
